Laboratory results: patent US10000771B2, “Nuclear targeting sequences” (Yeda Research and Development Co. Ltd., priority 2007, dated 2018)

B1: AAA-MEK1: GFP-MEK1 with residues 386-8 (TPT) replaced with Ala (protein, UniProt Q02750 1-393, looked up, variant T386A P387A T388A)
Dual specificity …: MPKKKPTPIQLNPAPDGSAVNGTSSAETNLEALQKKLEELELDEQQRKRLEAFLTQKQKVGELKDDDFEKISELGAGNGGVVFKVSHKPSGLVMARKLIHLEIKPAIRNQIIRELQVLHECNSPYIVGFYGAFYSDGEISICMEHMDGGSLDQVLKKAGRIPEQILGKVSIAVIKGLTYLREKHKIMHRDVKPSNILVNSRGEIKLCDFGVSGQLIDSMANSFVGTRSYMSPERLQGTHYSVQSDIWSMGLSLVEMAVGRYPIPPPDAKELELMFGCQVEGDAAETPPRPRTPGRPLSSYGMDSRPPMAIFELLDYIVNEPPPKLPSGVFSLEFQDFVNKCLIKNPAERADLKQLMVHAFIKRSDAEEVDFAGWLCSTIGLNQPSAAAHAAGV
modifications: GFP fusion
notes: GFP-MEK1 with residues 386-8 (TPT) replaced with Ala
B2: TEY-AAA: TEY mutated ERK2 that does not contain phosphates in this site (protein)
chain: MAAAAAAGPEMVRGQVFDVGPRYTNLSYIGEGAYGMVCSAYDNLNKVRVAIKKISPFEHQTYCQRTLREIKILLRFRHENIIGINDIIRAPTIEQMKDVYIVQDLMETDLYKLLKTQHLSNDHICYFLYQILRGLKYIHSANVLHRDLKPSNLLLNTTCDLKICDFGLARVADPDHDHTGFLAAAVATRWYRAPEIMLNSKGYTKSIDIWSVGCILAEMLSNRPIFPGKHYLDQLNHILGILGSPSQEDLNCIINLKARNYLLSLPHKNKVPWNRLFPNADSKALDLLDKMLTFNPHKRIEVEQALAHPYLEQYYDPSDEPIAEAPFKFDMELDDLPKEKLKELIFEETARFQPGYRS
modifications: left off: large carriers

Assays:
[1] = test system: CHO cells; experiment: Microscopy of MEK1-GFP constructs (subcellular localization); type: cell-based
Experimental: FIGS. 14A-14R are photomicrographs illustrating that the NTS motif regulates MEK1 shuttling into the nucleus. CHO cells overexpressing WT-GFP-MEK1 (WT), AAA-GFP-MEK1 (AAA-MEK) and EPE-GFP-MEK1 (EPE-MEK) were starved for 16 hr and treated with LMB (5 ng/ml, 1 hr; LMB), LMB (5 ng/ml, 1 hr)+TPA (250 nM, 15 min; LMB+TPA) or left un treated (NT). Subsequently the cells were fixed, stained with DAPI and visualized by a fluorescent microscope.
Immunofluorescence Microscopy. Cells were fixed (30 min in 3% paraformaldehyde in PBS or 10 min with ice-cold methanol), followed by 5-min permeabilization with 0.2% Triton X-100 in PBS (23° C.). The fixed cells were sequentially incubated with the appropriate Abs (45 min) followed by rhodamine-conjugated secondary Abs (45 min) and DAPI. Slides were visualized using a fluorescence microscope (Nikon, Japan) at 400× magnifications.
Other proteins that translocate into the nucleus upon stimulation are the MEKs [H. Jaaro, H. Rubinfeld, T. Hanoch, R. Seger, Proc. Natl. Acad. Sci. USA 94, 3742 (1997)]. […] This TPT sequence was also shown to be phosphorylated upon cellular stimulation [S. Matsuda, Y. Gotoh, E. Nishida, J Biol Chem 268, 3277 (Feb. 15, 1993)], and to be involved in protein-protein interaction that can determine subcellular localization [A. Nantel, K. Mohammad-Ali, J. Sherk, B. I. Posner, D. Y. Thomas, J Biol Chem 273, 10475 (Apr. 24, 1998). […]

[2] = test system: SPS domain; experiment: SPS phosphorylation detected by anti pSPS Ab Western blot; type: cell-based; conditions: COS7 cells, stimulated with VOOH, TPA, EGF or TGFβ, immunoprecipitation and Western blot
Experimental: (§1) FIGS. 4A-4I are autoradiographs characterizing SPS phosphorylation using an Ab to the phosphorylated SPS domain. FIG. 4A illustrates an elevation of pSPS detection upon stimulation. COS cells were transfected with WT-GFP-ERK2. Twenty-four hr after transfection, the cells were serum-starved for 16 hr and subsequently treated with the general stimulator VOOH (V, 100 μM Na3VO4 and 200 μM H2O2, 15 min), TPA (T, 250 nM, 15 min), EGF (E, 50 ng/ml for 15 min), or left untreated (NT). The GFP-ERK2 was immunoprecipitated with anti GFP Ab, extensively washed, and the IP was then subjected to Western blotting with anti phospho SPS-ERK (αphoSPS-ERK) and anti general ERK (αgen-ERK) Abs. FIG. 4B is a time course of SPS phosphorylation. COS7 cells overexpressing WT-GFP-ERK2 were serum starved followed by EGF stimulation for the indicated time points. The lysates were then subjected to Western blot analysis as in FIG. 4A. […] SPS phosphorylation was detected using the anti pSPS Abs, and this was compared to the amount of genral ERKs detected by αgERK. […] SPS-phosphorylation was detected using αpSPS and αgERK Abs. […] The phosphorylation (^32P-ERK2) of ERK and its mutants was detected by autoradiography. […]
FIG. 9B is an autoradiograph illustrating that stimulation elevates pSPS phosphorylation of 2GFP-SPS construct. […] The total amount of immunoprecipitated 2GFP-SPS was detected with αGFP Ab. […]

[3] = target: T1, Act-GST-ERK2 (Rattus norvegicus, UniProt P63086); experiment: In vitro kinase assay with active GST-ERK2; type: biochemical; conditions: immunoprecipitated protein as substrate, relative to GFP-ERK2
T1 construct: made in house; host or cells: bacteria co-expressing active MEK1
T1 sequence (P63086 whole entry): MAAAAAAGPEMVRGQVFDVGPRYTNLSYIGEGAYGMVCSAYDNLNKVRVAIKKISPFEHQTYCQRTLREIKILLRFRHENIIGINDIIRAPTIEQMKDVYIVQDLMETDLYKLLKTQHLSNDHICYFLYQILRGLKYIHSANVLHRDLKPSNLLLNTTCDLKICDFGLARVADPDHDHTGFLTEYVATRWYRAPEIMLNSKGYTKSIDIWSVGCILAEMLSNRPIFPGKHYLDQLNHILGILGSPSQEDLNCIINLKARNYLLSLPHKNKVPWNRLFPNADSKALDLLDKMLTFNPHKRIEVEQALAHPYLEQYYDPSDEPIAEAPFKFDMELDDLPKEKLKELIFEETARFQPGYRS
Experimental: as §1, with “phosphorylation.” for “phosphorylation. COS7 cells overexpressing WT-GFP-ERK2 were serum starved followed by EGF stimulation for the indicated time points. The lysates were then subjected to Western blot analysis as in FIG. 4A.”
Some protein kinases downstream of MEKs that may be involved in the SPS phosphorylation are ERKs themselves (autophosphorylation) as their consensus phosphorylation site includes Ser/Thr followed by a Pro (Yoon and Seger, 2006, Growth Factors, 24, 21-44). […] As expected, ^32P incorporation to GFP-ERK2 was detected mainly when this protein was incubated with Act-ERK2. […]

Row | Molecule | nuclear accumulation after TPA stimulation ([1]; LMB 5 ng/ml + TPA 250 nM, 15 min) | nuclear translocation after leptomycin B ([1]; LMB 5 ng/ml, 1 hr) | SPS phosphorylation upon stimulation (anti pSPS Ab recognition) [2] | reduction of phosphorylation (32P incorporation) by Act-ERK2 [3] [%]
1 | B1 | localized in the cytoplasm | abrogated |  | 
2 | B2 |  |  | can still be recognize by the anti phosphoSPS Ab upon stimulation | ~25
